In article PMC4825019:
Like-named read-outs stand apart in the source and are kept apart here.

Key:
[1] = molecular target: synaptophysin (endogenous) (mouse (endogenous in C57BL/6 brain)) (UniProt Q62277); assay: co-IP; reverse co-IP from dephosphorylated wild-type mouse brain lysate (neither heated nor dialyzed) with antibodies for synaptophysin, β-synuclein or apoA1; blot probed with Dako Tau antibody, the three Tau isoforms quantified with ImageJ
[2] = molecular target: β-synuclein (endogenous) (mouse (endogenous in C57BL/6 brain)) (UniProt Q91ZZ3); assay: as above
[3] = molecular target: β-synuclein (endogenous) (mouse (endogenous in C57BL/6 brain)) (UniProt Q91ZZ3); assay: as above; remark: listed apart in the source
[4] = molecular target: recombinant 1N Tau (Mtau210, 1N4R, with N-terminal GST tag) (murine); assay: ELISA; plates coated overnight at 4 °C with recombinant 0N, 1N or 2N Tau at 10 μg/ml in PBS, blocked with 3% BSA; recombinant β-synuclein and synaptophysin at 10 μg/ml in PBS for 1 h at room temperature, detected with anti-V5; recombinant apoA1 detected with an anti-apoA1 antibody; absorbance at 450 nm after subtraction of BSA-coated wells
[5] = molecular target: recombinant 2N Tau (Mtau2310, 2N4R, with N-terminal GST tag) (murine); assay: as above

UniProt Q62277, sequence (Q62277 whole entry, canonical isoform): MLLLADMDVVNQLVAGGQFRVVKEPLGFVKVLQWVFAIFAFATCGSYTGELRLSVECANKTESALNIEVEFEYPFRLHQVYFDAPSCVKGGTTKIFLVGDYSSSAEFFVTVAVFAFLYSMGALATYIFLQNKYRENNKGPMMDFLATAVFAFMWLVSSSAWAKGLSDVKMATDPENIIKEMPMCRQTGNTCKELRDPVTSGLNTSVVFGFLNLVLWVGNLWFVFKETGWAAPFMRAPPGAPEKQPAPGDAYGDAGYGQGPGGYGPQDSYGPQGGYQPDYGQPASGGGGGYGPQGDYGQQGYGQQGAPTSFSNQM

ratio to 0N Tau (Western blot of the reverse IP) [1]	ratio to 0N Tau (Western blot of the reverse IP) [2]	ratio to 0N Tau (Western blot of the reverse IP) [3]	ratio to 0N Tau (ELISA absorbance) [4]	ratio to 0N Tau (ELISA absorbance) [5]	Substance
0.93	0.37	0.5			2N Tau (endogenous) (natural protein)
0.97	0.41	0.897			1N Tau (endogenous) (natural protein)
			0.63	0.26	recombinant β-synuclein (C-terminal His6 and V5 tag) (from UniProt Q91ZZ3 1-133) (natural protein)
